According to patent WO2018095932A1 (dated 2018):
Substitutions are numbered along the chain they refer to.

What was measured:
[1] = target: T1, human FGFR1b-IIIb extracellular domain with a His tag (human); test: ELISA, IgG1 format
T1 construct: also called huFGFR1b-IIIb; FGFR1-IIIb
T1 chain: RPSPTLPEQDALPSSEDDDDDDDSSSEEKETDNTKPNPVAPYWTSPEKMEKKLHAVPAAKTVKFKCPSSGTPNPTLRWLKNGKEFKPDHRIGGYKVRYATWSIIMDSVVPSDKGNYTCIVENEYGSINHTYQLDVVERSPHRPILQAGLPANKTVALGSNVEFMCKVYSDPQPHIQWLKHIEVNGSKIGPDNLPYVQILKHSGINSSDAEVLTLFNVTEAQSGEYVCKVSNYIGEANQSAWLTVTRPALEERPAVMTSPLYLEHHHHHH

[2] = target: T2, human FGFR1b-IIIc extracellular domain with a His tag (human, UniProt P11362 22-376); test: ELISA, IgG1 format
T2 construct: also called huFGFR1b-IIIc; FGFR1-IIIc
T2 sequence: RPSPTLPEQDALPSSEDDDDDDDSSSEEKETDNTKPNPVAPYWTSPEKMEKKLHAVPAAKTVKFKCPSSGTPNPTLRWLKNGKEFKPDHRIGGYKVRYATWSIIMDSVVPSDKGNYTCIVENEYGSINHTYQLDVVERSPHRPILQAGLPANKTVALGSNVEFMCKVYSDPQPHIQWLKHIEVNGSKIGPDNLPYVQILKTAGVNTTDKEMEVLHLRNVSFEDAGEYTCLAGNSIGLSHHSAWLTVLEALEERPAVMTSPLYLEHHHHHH

[3] = target: T3, human FGFR1 (FGFR1b-IIIb or FGFR1b-IIIc, not stated which) (human, UniProt P11362 22-376); test: ELISA on coated human FGFR1b (IIIb or IIIc, not stated which), IgG1 format
T3 chain: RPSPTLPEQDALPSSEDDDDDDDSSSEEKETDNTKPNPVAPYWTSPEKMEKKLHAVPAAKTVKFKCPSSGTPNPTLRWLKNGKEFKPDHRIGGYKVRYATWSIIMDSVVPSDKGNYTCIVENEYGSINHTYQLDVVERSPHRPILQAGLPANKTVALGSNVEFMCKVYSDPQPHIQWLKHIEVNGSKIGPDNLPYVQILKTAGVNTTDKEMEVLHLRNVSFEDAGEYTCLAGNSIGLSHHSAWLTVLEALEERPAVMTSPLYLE

[4] = target: T3, human FGFR1 (FGFR1b-IIIb or …); test: ELISA on coated human FGFR1b (IIIb or IIIc, not stated which)
FGFR1 of NCI-H520 cells = FGFR1 of NCI-H520 cells (UniProt P11362 22-822); test: cell-based or functional assay
Sequence of FGFR1 of NCI-H520 cells (P11362 22-822): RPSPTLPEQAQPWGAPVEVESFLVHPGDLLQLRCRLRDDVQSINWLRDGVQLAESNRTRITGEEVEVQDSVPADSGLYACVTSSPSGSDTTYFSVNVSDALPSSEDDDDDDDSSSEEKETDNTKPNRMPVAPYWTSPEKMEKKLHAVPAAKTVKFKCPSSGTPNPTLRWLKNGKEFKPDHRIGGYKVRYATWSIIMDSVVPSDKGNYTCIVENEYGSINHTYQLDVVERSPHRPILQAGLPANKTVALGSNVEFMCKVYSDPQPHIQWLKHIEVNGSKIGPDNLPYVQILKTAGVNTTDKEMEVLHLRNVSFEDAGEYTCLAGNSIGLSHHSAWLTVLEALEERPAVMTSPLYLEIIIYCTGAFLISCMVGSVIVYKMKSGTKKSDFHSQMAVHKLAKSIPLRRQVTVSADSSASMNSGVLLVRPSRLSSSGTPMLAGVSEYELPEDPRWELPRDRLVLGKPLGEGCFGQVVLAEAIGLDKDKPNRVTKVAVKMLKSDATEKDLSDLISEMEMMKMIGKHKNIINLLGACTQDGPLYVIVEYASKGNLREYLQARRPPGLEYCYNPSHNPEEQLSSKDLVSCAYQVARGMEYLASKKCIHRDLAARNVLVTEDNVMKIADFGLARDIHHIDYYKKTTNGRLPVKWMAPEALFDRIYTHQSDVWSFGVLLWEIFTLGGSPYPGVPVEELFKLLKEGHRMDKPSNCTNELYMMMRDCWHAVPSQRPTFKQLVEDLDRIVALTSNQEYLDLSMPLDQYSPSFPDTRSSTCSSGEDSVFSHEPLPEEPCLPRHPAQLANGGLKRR

[5] = target: T1, human FGFR1b-IIIb extracellular domain …; test: SPR (BIAcore 4000), antibody captured by anti-human Fc, His-tagged FGFR1 injected
[6] = target: T2, human FGFR1b-IIIc extracellular domain …; test: as above
[7] = target: T1, human FGFR1b-IIIb extracellular domain …; test: ELISA
Human FGFR1 D2-His6 = target: T4, Human FGFR1 D2-His6 (human, UniProt P11362 22-254); test: ELISA
T4 construct: also called D2 domain; wild-type D2
T4 sequence: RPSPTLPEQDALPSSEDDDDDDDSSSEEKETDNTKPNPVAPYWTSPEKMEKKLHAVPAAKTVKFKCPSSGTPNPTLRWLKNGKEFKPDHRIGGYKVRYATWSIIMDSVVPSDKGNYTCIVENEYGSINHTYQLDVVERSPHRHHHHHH

B1: mAb #A02 in the IgG1 format (antibody, V domains shown)
VH: QVQLQESGPGLVKPSGTLSLTCAVSGGSISSNNWWSWVRQPPGKGLEWIGEIYHSGSTSYNPSLKSRVTISVDKSKNQFSLKLSSVTAADTAVYYCARATDWFDLWGQGTLVTVSS
VL: SYVLTQPPSVSVAPGQTARITCGGNNIGSESVHWYQQKPGQAPVLVVYDDSDRPSGIPERFSGSNSGNTATLTISRVEAGDEADYYCQVWDSTSDHRVFGGGTKLTVL
B1: binds [1]; binds [2].

B2: #A08 lead IgG1 antibody (bivalent) (antibody, V domains shown)
VH: B1 VH with Q1E, A99G, L105P
VL: SYVLTQPPSVSVAPGQTARITCGGNNIGSESVHWYQQKPGQAPVLVVYDDSDRPSGIPERFSGSNSGNTATLTISRVEAGDEADYYCQVWDSTSDHRVFGGGTKLTVLG
notes: also called lgG1 (bivalent) format of #A08; #A08 lead-lgG1 m3 antibody
B2 showed an EC50 [3] of 0.008 nM.

B3: mAb #D01 in the IgG1 format (antibody, V domains shown)
VH: B1 VH with L105H
VL: B2 VL
B3 gave an EC50 [4] of 0.015 nM.

B4: mAb #A08 (#A08 hit), anti-FGFR1 antibody (antibody, V domains shown)
VH: B1 VH with Q1E, S84N, A99G, L105P
VL: B1 VL with S1Q, Y2A
notes: also called imAb #A08; clone #A08
With B4 the “IC50 of inhibition of FGF1-induced pFGFR1 in NCI-H520 cells” value (FGFR1 of NCI-H520 cells) was 4 nM, the “IC50 of inhibition of FGF2-induced pFGFR1 in NCI-H520 cells” value (FGFR1 of NCI-H520 cells) was 0.2 nM and the Kd [5] was 0.01 nM. It also gave a Kd [6] of 0.017 nM.

B5: mAb #C01 in the IgG1 format (antibody, V domains shown)
VH: B1 VH with L105A
VL: B1 VL
B5: binds [1]; binds [2].

B6: mAb #A05 (#A05 hit), anti-FGFR1 antibody (antibody, IgG1, V domains shown)
VH: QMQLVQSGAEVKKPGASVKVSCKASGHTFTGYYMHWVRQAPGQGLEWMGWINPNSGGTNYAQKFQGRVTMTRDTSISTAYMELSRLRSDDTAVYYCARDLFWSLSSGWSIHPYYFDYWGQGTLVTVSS
VL: QSALTQPASVSGSPGQSITISCTGTSSDVGSYNLVSWYQQHPGKAPKLMIYGGSKRPSGVPDRFSGSKSDTSASLTISGLQAEDEADYYCCSYTYNGDVFGTGTKVTVL
notes: also called imAb #A05
With B6 the binding result [7] was “binds”, the binding result (Human FGFR1 D2-His6) was “no binding” and the “IC50 of inhibition of FGF1-induced pFGFR1 in NCI-H520 cells” value (FGFR1 of NCI-H520 cells) was 1 nM. The “IC50 of inhibition of FGF2-induced pFGFR1 in NCI-H520 cells” value (FGFR1 of NCI-H520 cells) was 1 nM and the Kd [6] was 0.01 nM.

B7: monovalent SEEDbody #A08 (antibody)
heavy: EVQLQESGPGLVKPSGTLSLTCAVSGGSISSNNWWSWVRQPPGKGLEWIGEIYHSGSTSYNPSLKSRVTISVDKSKNQFSLKLSSVTAADTAVYYCARGTDWFDPWGQGTLVTVSSASTKGPSVFPLAPSSKSTSGGTAALGCLVKDYFPEPVTVSWNSGALTSGVHTFPAVLQSSGLYSLSSVVTVPSSSLGTQTYICNVNHKPSNTKVDKRVEPKSCDKTHTCPPCPAPELLGGPSVFLFPPKPKDTLMISRTPEVTCVVVDVSHEDPEVKFNWYVDGVEVHNAKTKPREEQYNSTYRVVSVLTVLHQDWLNGKEYKCKVSNKALPAPIEKTISKAKGQPFRPEVHLLPPSREEMTKNQVSLTCLARGFYPKDIAVEWESNGQPENNYKTTPSRQEPSQGTTTFAVTSKLTVDKSRWQQGNVFSCSVMHEALHNHYTQKTISLSPG
chain: EPKSSDKTHTCPPCPAPELLGGPSVFLFPPKPKDTLMISRTPEVTCVVVDVSHEDPEVKFNWYVDGVEVHNAKTKPREEQYNSTYRVVSVLTVLHQDWLNGKEYKCKVSNKALPAPIEKTISKAKGQPREPQVYTLPPPSEELALNELVTLTCLVKGFYPSDIAVEWLQGSQELPREKYLTWAPVLDSDGSFFLYSILRVAAEDWKKGDTFSCSVMHEALHNHYTQKSLDRSPG
light: SYVLTQPPSVSVAPGQTARITCGGNNIGSESVHWYQQKPGQAPVLVVYDDSDRPSGIPERFSGSNSGNTATLTISRVEAGDEADYYCQVWDSTSDHRVFGGGTKLTVLGQPKAAPSVTLFPPSSEELQANKATLVCLISDFYPGAVTVAWKADSSPVKAGVETTTPSKQSNNKYAASSYLSLTPEQWKSHKSYSCQVTHEGSTVEKTVAPTECS
B7 was tested, and the “IC50 of inhibition of FGF1-induced pFGFR1 in NCI-H520 cells” value (FGFR1 of NCI-H520 cells) was 70 nM, the “IC50 of inhibition of FGF2-induced pFGFR1 in NCI-H520 cells” value (FGFR1 of NCI-H520 cells) was 6 nM and the “IC50 of inhibition of pFGFR1 in NCI-H520 cells in the absence of ligand” value (FGFR1 of NCI-H520 cells) was 20 nM. For the same binder, the “fold change of pFGFR1 inhibition IC50, monovalent against bivalent format” value (FGFR1 of NCI-H520 cells) was about 10 fold.
